Data: PMC10841013

Target: T1, rArgR (Streptococcus suis CZ130302) (UniProt Q3C167)
T1 sequence: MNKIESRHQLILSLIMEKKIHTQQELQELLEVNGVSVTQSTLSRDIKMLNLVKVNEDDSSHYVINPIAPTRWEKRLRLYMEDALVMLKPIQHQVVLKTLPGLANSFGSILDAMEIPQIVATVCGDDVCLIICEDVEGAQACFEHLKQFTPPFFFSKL
Assay: EMSA

TGGATGGTTTGACATGATCTGTCCTCCTTGTAGATTTATACATGATGGGAAACGAGGAGGACCGTACGCTTTCCTGCCTCTCATTTCCTCTTTACATCCATAGTTTAACAGAGCAAAAAAACAAAAACTTGAAAACGCTCGCATTTATGTTGAGAAATTCTTCACATTTTCAACCTTATTTATAAATAATTATCGATTATATCGCCTATATTATGCATAATTCTTTCTATTATATCATTATGTGAATTTT (double strand) [arcA promoter 250 bp]
binding: binds
